Three molecules from article doi:10.1101/2020.07.07.192757v1 (biorxiv, 2020) can be followed below.

One data set deals with T1, CpPT1 (Citrus x paradisi, UniProt A0A810JZE7).
T1 sequence (A0A810JZE7 1-408 limits assumed): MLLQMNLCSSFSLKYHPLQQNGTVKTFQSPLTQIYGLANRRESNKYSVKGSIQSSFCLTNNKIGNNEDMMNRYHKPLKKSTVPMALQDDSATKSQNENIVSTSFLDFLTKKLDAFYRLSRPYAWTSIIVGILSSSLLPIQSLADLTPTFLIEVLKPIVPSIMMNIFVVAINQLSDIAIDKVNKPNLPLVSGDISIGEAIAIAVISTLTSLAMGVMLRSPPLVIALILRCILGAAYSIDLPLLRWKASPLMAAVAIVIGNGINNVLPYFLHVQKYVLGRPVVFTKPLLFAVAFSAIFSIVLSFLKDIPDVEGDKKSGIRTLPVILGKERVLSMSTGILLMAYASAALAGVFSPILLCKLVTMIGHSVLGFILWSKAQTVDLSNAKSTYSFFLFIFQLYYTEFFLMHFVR
Kind of data set: geranyltransferase assay, LC product quantification, recombinant microsomes. The following applies: read-out: Apparent Km; co-substrate GPP; 10 mM MgCl2, pH 7.6, 28 °C.

The next data set has as its target T2, AkPT1 (Angelica keiskei, UniProt A0A810JZD5).
T2 sequence (A0A810JZD5 1-398): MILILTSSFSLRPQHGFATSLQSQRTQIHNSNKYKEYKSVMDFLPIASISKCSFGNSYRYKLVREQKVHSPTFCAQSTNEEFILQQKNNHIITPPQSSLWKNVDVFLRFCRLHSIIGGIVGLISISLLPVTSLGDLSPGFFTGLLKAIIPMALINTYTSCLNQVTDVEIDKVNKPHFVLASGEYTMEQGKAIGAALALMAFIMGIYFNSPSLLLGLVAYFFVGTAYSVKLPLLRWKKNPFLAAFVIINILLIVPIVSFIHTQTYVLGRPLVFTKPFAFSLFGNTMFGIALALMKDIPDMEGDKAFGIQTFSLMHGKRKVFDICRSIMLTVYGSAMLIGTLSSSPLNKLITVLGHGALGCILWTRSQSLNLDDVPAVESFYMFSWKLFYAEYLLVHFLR
Put plainly: dimethylallyltransferase assay, HPLC, recombinant microsomes. The following applies: read-out: Apparent Km; co-substrate DMAPP; 10 mM MgCl2, pH 8.0, 30 °C. It is filed as cell-based.

Substrate in data set [1]: COc1cc(O)c2ccc(=O)oc2c1
Put plainly: cells, lysate or membranes. The settings on record: co-substrate GPP, 10 mM MgCl2, pH 7.6, 28 °C.

Substrate in data set [2]: COc1c2ccoc2c(O)c2oc(=O)ccc12
Put plainly: cells, lysate or membranes. The following applies: co-substrate GPP, 10 mM MgCl2, pH 7.6, 28 °C.

Substrate in data set [3]: O=c1ccc2c(O)cc(O)cc2o1
Kind of data set: cells, lysate or membranes. The settings on record: co-substrate GPP, 10 mM MgCl2, pH 7.6, 28 °C.

Substrate in data set [4]: O=c1ccc2cc3ccoc3c(O)c2o1
Put plainly: cells, lysate or membranes. The following applies: co-substrate GPP, 10 mM MgCl2, pH 7.6, 28 °C.

Substrate in data set [5]: CC(C)=CCC/C(C)=C/COP(=O)(O)OP(=O)(O)O
Put plainly: cells, lysate or membranes. The settings on record: co-substrate bergaptol, 10 mM MgCl2, pH 7.6, 28 °C.

Substrate in data set [6]: CC(C)=CCOP(=O)(O)OP(=O)(O)O
Kind of data set: dimethylallyltransferase assay, HPLC, recombinant microsomes. It is filed as cell-based, Angelica keiskei. The settings on record: co-substrate bergaptol, 10 mM MgCl2, pH 8.0, 30 °C.

For `O=c1ccc2c(O)c3ccoc3cc2o1` [compound 12, Bergaptol], the results for the Km at CpPT1 and at AkPT1 were 52 ± 4 µM and 3.1 ± 0.3 µM, respectively.

B1: CpPT1 (Citrus x paradisi) (protein)
chain: MLLQMNLCSSFSLKYHPLQQNGTVKTFQSPLTQIYGLANRRESNKYSVKGSIQSSFCLTNNKIGNNEDMMNRYHKPLKKSTVPMALQDDSATKSQNENIVSTSFLDFLTKKLDAFYRLSRPYAWTSIIVGILSSSLLPIQSLADLTPTFLIEVLKPIVPSIMMNIFVVAINQLSDIAIDKVNKPNLPLVSGDISIGEAIAIAVISTLTSLAMGVMLRSPPLVIALILRCILGAAYSIDLPLLRWKASPLMAAVAIVIGNGINNVLPYFLHVQKYVLGRPVVFTKPLLFAVAFSAIFSIVLSFLKDIPDVEGDKKSGIRTLPVILGKERVLSMSTGILLMAYASAALAGVFSPILLCKLVTMIGHSVLGFILWSKAQTVDLSNAKSTYSFFLFIFQLYYTEFFLMHFVR
Regarding B1, the Km turned out to be 250 ± 30 µM in data set [1]; 700 ± 100 µM in data set [2]; 280 ± 30 µM in data set [3]; 280 ± 20 µM in data set [4]; 10 ± 1 µM in data set [5].

B2: AkPT1 (Angelica keiskei) (protein)
chain: MILILTSSFSLRPQHGFATSLQSQRTQIHNSNKYKEYKSVMDFLPIASISKCSFGNSYRYKLVREQKVHSPTFCAQSTNEEFILQQKNNHIITPPQSSLWKNVDVFLRFCRLHSIIGGIVGLISISLLPVTSLGDLSPGFFTGLLKAIIPMALINTYTSCLNQVTDVEIDKVNKPHFVLASGEYTMEQGKAIGAALALMAFIMGIYFNSPSLLLGLVAYFFVGTAYSVKLPLLRWKKNPFLAAFVIINILLIVPIVSFIHTQTYVLGRPLVFTKPFAFSLFGNTMFGIALALMKDIPDMEGDKAFGIQTFSLMHGKRKVFDICRSIMLTVYGSAMLIGTLSSSPLNKLITVLGHGALGCILWTRSQSLNLDDVPAVESFYMFSWKLFYAEYLLVHFLR
In the case of B2, the Km in data set [6] amounted to 1.8 ± 0.1 µM.

As a reminder, the Km is the concentration of substrate that gives half-maximal velocity.
